US20240398993A1, “SMALL MOLECULE-REGULATED GENE EXPRESSION SYSTEM” (Outpace Bio, Inc., priority 2021, published 2024)
Entries after “also recorded” stand apart in the source; their conditions may differ.

How the values were obtained:
HEK293 cells = assay: Danoprevir-induced EGFP reporter expression in transduced HEK293 cells, flow cytometry; assay type: cell-based
Jurkat cells = assay: Danoprevir-induced GFP/EGFP reporter expression in transduced Jurkat cells, flow cytometry; assay type: cell-based; conditions: for induced GFP expression (gMFI): 500 nM danoprevir 24 hours, ZF DBD-NS3a / DNCR2-TAD panel, YB_TATA minimal promoter, FIG. 11
[1] = titration of danoprevir, IPV16/TFV1 versus IPV16/TFV23, FIG. 18

Molecule: CC(C)(C)OC(=O)N[C@H]1CCCCC/C=C\[C@@H]2C[C@@]2(C(=O)NS(=O)(=O)C2CC2)NC(=O)[C@@H]2C[C@@H](OC(=O)N3Cc4cccc(F)c4C3)CN2C1=O [danoprevir, (2R,6S,12Z,13aS,14aR,16aS)-14a-[(Cyclopropylsulfonyl)carbamoyl]-6-({[(2-methyl-2-propanyl)oxy]carbonyl}amino)-5,16-dioxo-1,2,3,5,6,7,8,9,10,11,13a,14,14a,15,16,16a-hexadecahydrocyclopropa[e]pyrrolo[1,2-a][1,4]diazacyclopentadecin-2-yl 4-fluoro-1,3-dihydro-2H-isoindole-2-carboxylate, reference compound]
- danoprevir EC50 of EGFP expression (HEK293 cells; [1]): equivalent
- maximal EGFP expression levels (HEK293 cells; [1]): equivalent

B1: ZFHIV2: zinc finger DNA binding domain fused to NS3a (NS3a-ZFHIV2, SEQ ID NO: 71) (protein)
chain: KKKGSVVIVGRINLSGDTAYAQQTRGEEGCQETSQTGRDKNQVEGEVQIVSTATQTFLATSINGVLWTVYHGAGTRTIASPKGPVTQMYTNVDKDLVGWQAPQGSRSLTPCTCGSSDLYLVTRHADVIPVRRRGDSRGSLLSPRPISYLKGSAGGPLLCPAGHAVGIFRAAVSTRGVAKAVDFIPVESLETTMRSPGSGAAASGGGGSGGGGSGGTPPHERPFQCRICMRNFSNNAMLVRHTRTHTGEKPFQCRICMRNFSLSQTLQRHLRTHTGEKPFQCRICMRNFSMQGNLSRHLKTHLRGS
modifications: Synthetic polypeptide NS3a-ZFHIV2
- induced GFP expression (gMFI) (Jurkat cells): highest induced GFP levels
- induction of GFP expression (gMFI), 12×RE versus 6×RE (Jurkat cells; DNCR2-VPRmini, FIG. 12): lower induction
- induction of GFP expression (gMFI), leucine zipper (LZ) between NS3a and ZF versus direct fusion (Jurkat cells; DNCR2-VPRmini, TFV19, TFV20, FIG. 12): higher maximal induction

B2: p65-HSF1: transcriptional activation domain of all-human components fused to DNCR2 (SEQ ID NO: 52) (protein)
chain: SSDEEEARELIERAKEAAERAQEAAERTGDPRVRELARELKRLAQEAAEEVKRDPSSSDVNEALKLIVEAIEAAVDALEAAERTGDPEVRELARELVRLAVEAAEEVQRNPSSSDVNEALHSIVYAIEAAIFALEAAERTGDPEVRELARELVRLAVEAAEEVQRNPSSRNVEHALMRIVLAIYLAEENLREAEESGDPEKREKARERVREAVERAEEVQRDPSGWLNHSGGGSGVDGSPKKKRKVGSVLPQAPAPAPAPAMVSALAQAPAPVPVLAPGPPQAVAPPAPKPTQAGEGTLSEALLQLQFDDEDLGALLGNSTDPAVFTDLASVDNSEFQQLLNQGIPVAPHTTEPMLMEYPEAITRLVTGAQRPPDPAPAPLGAPGLPNGLLSGDEDFSSIADMDFSALLSGSGGFSVDTSALLDLFSPSVTVPDMSLPDLDSSLASIQELLSPQEPPRPPEAENSSPDSGKQLVHYTAQPLFLLDPGSVDTGSNDLPVLFELGEGSYFSEGDGFAEDPTISLLTGSEPPKAKDPTVS
modifications: Synthetic polypeptide DNCR2-p65mini-HSF1
- induced GFP expression (gMFI) (Jurkat cells): moderate induction levels

B3: p65: transcriptional activation domain fused to DNCR2 (SEQ ID NO: 51) (protein)
chain: SSDEEEARELIERAKEAAERAQEAAERTGDPRVRELARELKRLAQEAAEEVKRDPSSSDVNEALKLIVEAIEAAVDALEAAERTGDPEVRELARELVRLAVEAAEEVQRNPSSSDVNEALHSIVYAIEAAIFALEAAERTGDPEVRELARELVRLAVEAAEEVQRNPSSRNVEHALMRIVLAIYLAEENLREAEESGDPEKREKARERVREAVERAEEVQRDPSGWLNHSGGGSGVDGSPKKKRKVGSVLPQAPAPAPAPAMVSALAQAPAPVPVLAPGPPQAVAPPAPKPTQAGEGTLSEALLQLQFDDEDLGALLGNSTDPAVFTDLASVDNSEFQQLLNQGIPVAPHTTEPMLMEYPEAITRLVTGAQRPPDPAPAPLGAPGLPNGLLSGDEDFSSIADMDFSALL
modifications: Synthetic polypeptide DNCR2-p65mini
- induced GFP expression (gMFI) (Jurkat cells): very weak

B4: ANR-SPOP: E3 ligase SPOP fused to the apo-NS3a reader ANR, SEQ ID NO: 157, expressed from IPV18 or TFV23 (protein)
chain: GELDELVYLLDGPGYDPIHSDVVTRGGSHLFNFSGSSGGSGVNISGQNTMNMVKVPECRLADELGGLWENSRFTDCCLCVAGQEFQAHKAILAARSPVFSAMFEHEMEESKKNRVEINDVEPEVFKEMMCFIYTGKAPNLDKMADDLLAAADKYALERLKVMCEDALCSNLSVENAAEILILADLHSADQLKTQAVDFINYHASDVLETSGWKSMVVSHPHLVAEAYRSLASAQCPFLGPPRKRLKQS
modifications: Synthetic polypeptide ANR-SPOP
- maximal danoprevir-induced EGFP expression, element expressed inducibly from the inducible promoter vector (HEK293 cells; 100 nM danoprevir, HEK293 cells, plot 1725): reduced the maximal danoprevir-induced EGFP expression
- danoprevir-induced EGFP expression, element expressed from the transcription factor vector (HEK293 cells; 100 nM danoprevir, HEK293 cells, plot 1730): maintaining high danoprevir-induced expression
- background EGFP expression level, fold lower than the system without ANR-SPOP (HEK293 cells; DMSO, IPV16/TFV23 versus IPV16/TFV1, plot 1800): about 3 times
- background (leaky) EGFP expression, DMSO (HEK293 cells; HEK293 cells, compared to wild type cells, FIG. 16-18): effectively removed any leaky background expression of EGFP; also recorded: indistinguishable from wild type HEK293 cells
